The results in this text go back to patent US20260152571A1 (BIOCYTOGEN PHARMACEUTICALS BEIJING, published 2026).

B1: ESK1 analog (antibody, V domains shown)
VH: QMQLVQSGAEVKEPGESLRISCKGSGYSFTNFWISWVRQMPGKGLEWMGRVDPGYSYSTYSPSFQGHVTISADKSTSTAYLQWNSLKASDTAMYYCARVQYSGYYDWFDPWGQGTLVTVSS
VL: not shown
notes: Fully human TCR-like monoclonal IgG1 antibody
B2: P01264-IgG1-SI (antibody, V domains shown)
VH: EVQLVESGGGLVKPGGSLRLSCAASGFTFSNAWMNWVRQAPGKGLEWVGRIKSKTDGGTTDYAAPVKGRFTISRHDSKNTLYLQMNSLKTEDTAVYYCATDPRIAVTGTDYYYGMDVWGQGTTVTVSS
VL: DIVMTQTPSFLSASVGDRVTITCRASQDISNYLNWYQQKPGKAPKLLIYDASNLETGVPSRFSGSGSGTDFTFTISSLQPEDIATYYCQQYDNLPITFGQGTRLEIK
notes: VH and VL joined to IgG1 constant regions with SI mutations (S239D and I332E, EU numbering) in the Fc
B3: P01218-IgG1-SI (antibody, V domains shown)
VH: EVQLVESGGGVVQPGRSLRLSCAASGFTFSSYAMHWVRQAPGKGLEWVAVISYDGSNKYYADSVKGRFTISRDNSKNTLYLQMNSLRAEDTAVYYCARAPYYGSGSYYNSYYYYHGMDVWGQGTTVTVSS
VL: AIWMTQSPSSLSASVGDRVTITCQASQDISNYLNWYQQKPGKAPNLLIYDASNLETGVPSRFSGSGSGTDFTLTISSLQPEDIATYYCQQYDNLPLTFGGGTKVEIK
notes: VH and VL joined to IgG1 constant regions with SI mutations (S239D and I332E, EU numbering) in the Fc; also called P01218-IgGI-SI
B4: 3E6-IgG1-SI (antibody, V domains shown)
VH: EVQLVESGGGVVRPGGSLRLSCAASGFTFDDSGMSWVRQGPGKGLEWVSGINWNGGSTGYADSVKGRFTISRDNAKNSLYLQMNSLRAEDTALYYCARDPGIAVAGPYYYYYYGMDVWGQGTTVTVSS
VL: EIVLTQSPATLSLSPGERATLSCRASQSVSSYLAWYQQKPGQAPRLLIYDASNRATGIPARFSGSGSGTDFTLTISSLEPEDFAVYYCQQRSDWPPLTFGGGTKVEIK
notes: as for B2
B5: 7B9-IgG1-SI (antibody, V domains shown)
VH: EVQLVESGGGVVQPGGSLRLSCAASGFTFDDYAMHWVRQAPGKGLEWVSLISGDDGSTYYADSMKGRITISRDNSKNSLYLQMNSLRTEDTAMYYCAKASYGSGSYLYNYGMDVWGQGTTVTVFS
VL: DIQLTQSPSSLSASVGDRVTITCQASQDIINYLNWYQQKPGKAPKLLIYDTSNLETGVPSRFSGSGSGTDFAFTINSLQPEDIATYYCQQFVNLPLTFGGGTKVEIK
notes: VH and VL joined to IgG1 constant regions with SI mutations (S239D and I332E, EU numbering) in the Fc; also called 7B9-IgGI-SI
B6: 1G7-IgG1-SI (antibody, V domains shown)
VH: QVQLVESGGGVVRPGGSLRLSCTASGFTFDDYGMTWVRQAPGKGLEWVSGINWNGGSTGYADSVKGRFTISRDNAKNSLFLQMNSLRAEDTALYYCARDQGIAVVGTHYYYYYGMDVWGQGTAVTVSS
VL: EIVLTQSPATLSLSPGERATLSCRASQSFSSYLAWYQQKPGQAPRLLIFDTSNRATGIPARFSGSGSGTDFTLTISSLEPEDFAVYYCQQRSNWPLTFGGGTKVEIK
notes: as for B2
B7: 1E9-IgG1-SI (antibody, V domains shown)
VH: EVQMVESGGDVVRPGGSLRLSCAASGFMFDDYGMSWVRHVQGKGLEWVSGIDWNGDSTGYADSVKGRFTISRDNAKNSLYLQMNSLRAEDTALYYCARDQGIAVAGPYNYYYGMDVWGQGTTVTVSS
VL: B6 VL with F29V, Q38E, T51A, L96F, G100P, K103R
notes: VH and VL joined to IgG1 constant regions with SI mutations (S239D and I332E, EU numbering) in the Fc; also called 1E9-IgGI-SI
B8: 3A6-IgG1-SI (antibody, V domains shown)
VH: QVQLQESGPGMVKPSETLSLTCTVSGGSISYNYWSWIRQPPGKGLEWIGYIYHSGTTKYNPSLKSRVTMSVDTSKNHFSLKLNSVTAADTAVYYCARHEDYWFFDLWGRGTLVTVSS
VL: DIQMTQSPSSLSASVGDRVTITCRASQGISNYLVWFQQKPGKAPKSLIYAASILQSGVPSKFSGSGSGTDFTLTINSLQPEDFATYYCQQYNTYPFTFGPGTKVDIK
notes: as for B2
B9: 4F10-IgG1-SI (antibody, V domains shown)
VH: QVQLQESGPGLVKPSETLSLTCTVSGGSISNYYWSWIRQPPGKGLEWIGYIYYSGSTNYNPSLKSRVNISVDTSKSQVSLKLNSVIAADTAVYYCARHEDYWYFDLWGRGTLVTVSS
VL: DIQLTQSPSSLSASIRDRVTITCRASQDINNYLAWFQQKPGKAPKSLIYAVSSLESGVPSKFSGSGSGTDFTLTISSLQPEDFATYFCQQYNSYPFTFGPGTKVEIK
notes: as for B2
B10: P01199-IgG1-SI (antibody, V domains shown)
VH: B2 VH with E1Q, A40T, T60K, H75D, K89N, A99S
VL: not shown
notes: as for B2

Where a chain is given by its changes, count along the chain named. Names and notes keep the numbering of the source.

One assay has as its target WT1RMF/HLA-A2 complex on cells (human). Kind of assay: flow cytometry, T2 cells pulsed with 50 µM WT1RMF, antibody titrated 0.00096-45 nM, MFI curve.
Molecule B1 gave an EC50 of 4.04 nM.

Molecule B2 returned an EC50 of 0.896 nM. This EC50 is about 4.5-fold lower than that of the molecule before.

Molecule B3 displayed a concentration for a half-maximal effect (EC50) of 3.48 nM.

As for B4, a half-maximal effect (EC50) was put at 2.02 nM. Against the preceding molecule, the EC50 is about 1.7-fold lower.

Consider B5, for which the EC50 came out at 0.553 nM.

The molecule B6 had a 50% effective concentration (EC50) of 0.337 nM. Against the preceding molecule, the EC50 is about 1.6-fold lower.

B7 returned an EC50 of 0.798 nM.

Consider B8, for which the midpoint of the response, the EC50, lay at 2.26 nM. Against the preceding molecule, the EC50 is about 2.8-fold higher.

Turning to B9, it took 0.42 nM to reach a half-maximal effect (EC50).

A further assay addresses His-tagged WT1RMF/HLA-A2 complex (human). Kind of assay: SPR, Biacore 8K; antibody captured on Protein A chip, His-tagged complex as analyte; 1:1 Langmuir fit. For orientation: In SPR one partner is held on a chip, and binding of the other changes the refractive index at the surface.
Molecule B10 had a Kd of 67.4 nM, a koff of 0.00987 s⁻¹ and a kon of 147000 M⁻¹ s⁻¹.

As to B2, the Kd was 121 nM, the koff was found to be 0.0177 s⁻¹ and the kon came to 146000 M⁻¹ s⁻¹.

B3: the affinity, expressed as Kd, was 16.1 nM; the koff worked out at 0.000902 s⁻¹; the kon came to 56200 M⁻¹ s⁻¹.

In the case of B4, binding was characterised by a dissociation constant (Kd) of 30.3 nM, the dissociation rate constant (koff) is 0.00451 s⁻¹ and the kon came out at 149000 M⁻¹ s⁻¹.

In the case of B5, the Kd came out at 15.3 nM, the koff came to 0.00185 s⁻¹ and the kon came out at 121000 M⁻¹ s⁻¹.

Consider B6, for which the Kd turned out to be 9.49 nM, the koff turned out to be 0.00151 s⁻¹ and the kon came to 159000 M⁻¹ s⁻¹.

In turn, B7 showed an equilibrium dissociation constant (Kd) of 22.4 nM, a koff of 0.00164 s⁻¹ and a kon of 73100 M⁻¹ s⁻¹.

B8 displayed a Kd of 7100 nM, a koff of 0.0204 s⁻¹ and a kon of 2870 M⁻¹ s⁻¹.

For B9, the Kd was determined as 0.43 nM, the koff is 0.000664 s⁻¹ and the kon was determined as 1.54e+06 M⁻¹ s⁻¹.

Another assay concerns the target WT1RMF/HLA-A2 complex on cells (human). The assay can be described thus: flow cytometry (MFI), T2 cells pulsed with 50 µM WT1RMF, antibody titrated. For orientation: In flow cytometry, cells or beads pass a laser one at a time.
On to B6, for which the “EC50 (read off the curve)” value is roughly 1 nM.

The next assay shares this target. Kind of assay: flow cytometry, T2 cells pulsed with 25 µM WT1RMF, antibody 10 µg/mL.
For the molecule B1, the “Percentage of Positive Cells (%)” value turned out to be 88.8%.

As to B10, the “Percentage of Positive Cells (%)” value stood at 88.5%.

Consider B2, for which the “Percentage of Positive Cells (%)” value amounted to 75.4%.

With B3, the “Percentage of Positive Cells (%)” value was 92.8%.

In the case of B4, the “Percentage of Positive Cells (%)” value was 30.9%.

As to B5, the “Percentage of Positive Cells (%)” value came out at 93%.

Consider B6, for which the “Percentage of Positive Cells (%)” value was 92.4%.

As for B7, the “Percentage of Positive Cells (%)” value was 94.9%.

Regarding B8, the “Percentage of Positive Cells (%)” value is 70.3%.

For the molecule B9, the “Percentage of Positive Cells (%)” value was determined as 95.6%.

The EC50 is the concentration that produces a half-maximal response. A higher EC50 goes with lower potency in that assay. For orientation: Kd means the constant that tells how readily two partners part at equilibrium. A high value points to weaker binding. For orientation: koff means the rate constant with which the complex falls apart. A low value points to slow dissociation. The kon is a measure of how fast the partners come together. Low readings indicate slow association, high ones fast association. A word on the EC50 (read off the curve): it is the concentration giving half of the maximal effect.
